Laboratory results as given in US20260242478A1 (published 2026).
Where no end group is shown, it is not given here.

Assays:
[1] = biological target: Anti-CD28 Fab (SEQ ID NOs: 696, 697); experiment: phage binding ELISA; biotinylated anti-CD28 Fab on neutravidin plate, clonal phage supernatant, anti-M13 HRP detection
Target sequence in this assay (VH, as listed by the source, chain 1 of 2): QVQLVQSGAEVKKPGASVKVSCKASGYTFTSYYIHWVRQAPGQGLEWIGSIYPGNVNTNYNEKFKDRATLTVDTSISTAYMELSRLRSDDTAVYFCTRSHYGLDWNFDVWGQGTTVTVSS
Target sequence in this assay (VL, as listed by the source, chain 2 of 2): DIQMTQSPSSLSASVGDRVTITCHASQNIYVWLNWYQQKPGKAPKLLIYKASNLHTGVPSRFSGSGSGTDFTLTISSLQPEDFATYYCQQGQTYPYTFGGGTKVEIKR

[2] = biological target: Anti-CD28 Fab (SEQ ID NOs: 696, 697); experiment: phage binding ELISA on captured anti-CD28 Fab; competitor: CD28 antigen preincubated in the wells
Target sequence in this assay (VH, as listed by the source, chain 1 of 2): as the sequence (VH, as listed by the source, chain 1 of 2) above
Target sequence in this assay (VL, as listed by the source, chain 2 of 2): as the sequence (VL, as listed by the source, chain 2 of 2) above

[3] = biological target: T1, Anti-CD28 Fab (SEQ ID NOs: 696, 697); experiment: phage ELISA; as above with CD28 antigen as competitor pre-incubated on the Fab coated wells
T1 construct: Biotinylated and captured on neutravidin coated plates in the phage ELISA
T1 sequence (VH, as listed by the source, chain 1 of 2): as the sequence (VH, as listed by the source, chain 1 of 2) above
T1 sequence (VL, as listed by the source, chain 2 of 2): as the sequence (VL, as listed by the source, chain 2 of 2) above
Method: (§1) After panning, phage infected bacteria were plated out and colonies picked into 96 well blocks. Clonal phage was then amplified and separated from bacterial cells via centrifugation.
(§2) Clonal phage were harvested as crude supematants and screened via standard ELISAs. […] Prior to the addition of clonal phage, wells were incubated with blocking buffer and CD28 antigen or blocking buffer alone. Without washing or aspirating, clonal phage supematants were then added to the wells and incubated for a short time. Wells were then washed followed by detection of bound phage using a horse radish conjugated anti-M13 antibody. Clonal phage of interest were then sent for sequence analysis.

[4] = biological target: T1, Anti-CD28 Fab (SEQ ID NOs: 696, 697); experiment: phage ELISA; biotinylated anti-CD28 Fab on neutravidin plates, clonal phage supernatant, anti-M13 HRP detection
Method: as §1, §2

[5] = biological target: T2, Anti-CD28 Fab (SEQ ID NOs: 696, 697); experiment: phage binding ELISA; biotinylated anti-CD28 Fab on neutravidin plate, clonal phage supernatant, anti-M13 HRP detection
T2 construct: In the phage ELISA the Fab was biotinylated and captured on neutravidin coated plates
T2 sequence (VH, as listed by the source, chain 1 of 2): as the sequence (VH, as listed by the source, chain 1 of 2) above
T2 sequence (VL, as listed by the source, chain 2 of 2): as the sequence (VL, as listed by the source, chain 2 of 2) above

[6] = biological target: T2, Anti-CD28 Fab (SEQ ID NOs: 696, 697); experiment: phage binding ELISA; Fab-coated wells pre-incubated with CD28 antigen as competitor, anti-M13 HRP detection;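 also: crude clonal phage supernatants from panned colonies added to wells after blocking buffer plus CD28 treatment, bound phage measured after a brief incubation and washing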
[7] = biological target: T3, Anti-CD28 Fab (SEQ ID NOs: 696, 697); experiment: phage ELISA; biotinylated anti-CD28 Fab on neutravidin plate, bound phage detected with anti-M13-HRP
T3 construct: In the phage ELISA the Fab was biotinylated and captured on neutravidin coated plates
T3 sequence (VH, as listed by the source, chain 1 of 2): as the sequence (VH, as listed by the source, chain 1 of 2) above
T3 sequence (VL, as listed by the source, chain 2 of 2): as the sequence (VL, as listed by the source, chain 2 of 2) above
Method: as §1, §2

[8] = biological target: T3, Anti-CD28 Fab (SEQ ID NOs: 696, 697); experiment: phage ELISA on captured anti-CD28 Fab; competitor: CD28 antigen pre-incubated in the well
Method: as §1, §2

B1: Phage-915 (peptide)
peptide: YCEGHLPQYMRPCL
notes: Peptide-87 library clone, tested as clonal phage supernatant with the peptide fused to the pIII filament of the bacteriophage
[1]
  Anti-CD28 Fab signal (phage binding ELISA): 1.66
[2]
  Anti-CD28 Fab signal in the presence of CD28 (phage binding ELISA): 0.08

## YCDGHSSLYMHKCL (Tested as clonal phage supernatant) [Phage-904 (Peptide-87 library clone, YCDGHSSLYMHKCL)]
[3]
  Phage binding ELISA, Anti-CD28 Fab signal in the presence of CD28: 0.07
[4]
  Phage binding ELISA, Anti-CD28 Fab signal: 1.67

B2: Phage-918 (Peptide-87 library clone, SEQ ID NO: 1234) (peptide)
peptide: YCAGHLPEFMDKCL
modifications: cysteine pairing not given here; also: fused to phage pIII
notes: Tested as clonal phage supernatant; not shown: fused to the pIII filament protein of the bacteriophage
[5]
  Anti-CD28 Fab signal (phage binding ELISA): 1.66
[6]
  Anti-CD28 Fab signal in the presence of CD28 (phage binding ELISA): 0.06

B3: Phage-886 (peptide)
peptide: YCDGHLPEYFLKCL
modifications: cysteine pairing not given here; also: fused to phage pIII
notes: not shown: pIII filament protein of the bacteriophage to which the peptide is fused
[7]
  Anti-CD28 Fab signal (phage binding ELISA): 1.71
[8]
  Anti-CD28 Fab signal in the presence of CD28: 0.11

B4: Phage-917 (peptide)
peptide: YCDGHSPEYIGKCL
notes: as for B1
[1]
  Anti-CD28 Fab signal (phage binding ELISA): 1.66
[2]
  Anti-CD28 Fab signal in the presence of CD28 (phage binding ELISA): 0.07

B5: Phage-908 (peptide)
peptide: YCDGHSREYMSKCL
notes: as for B1
[1]
  Anti-CD28 Fab signal (phage binding ELISA): 1.67
[2]
  Anti-CD28 Fab signal in the presence of CD28 (phage binding ELISA): 0.1

B6: Phage-910 (peptide)
peptide: YCEGHAQEYMNKCL
notes: as for B1
[1]
  Anti-CD28 Fab signal (phage binding ELISA): 1.67
[2]
  Anti-CD28 Fab signal in the presence of CD28 (phage binding ELISA): 0.06

## YCDGHLPVYLEKCL (Tested as clonal phage supernatant) [Phage-894 (Peptide-87 library clone, YCDGHLPVYLEKCL)]
[3]
  Phage binding ELISA, Anti-CD28 Fab signal in the presence of CD28: 0.06
[4]
  Phage binding ELISA, Anti-CD28 Fab signal: 1.69

## YCAGHSPLYMLKCL (Tested as clonal phage supernatant) [Phage-892 (Peptide-87 library clone, YCAGHSPLYMLKCL)]
[3]
  Phage binding ELISA, Anti-CD28 Fab signal in the presence of CD28: 0.1
[4]
  Phage binding ELISA, Anti-CD28 Fab signal: 1.7

## YCEGHSAEYMQKCL (Tested as clonal phage supernatant) [Phage-893 (Peptide-87 library clone, YCEGHSAEYMQKCL)]
[3]
  Phage binding ELISA, Anti-CD28 Fab signal in the presence of CD28: 0.29
[4]
  Phage binding ELISA, Anti-CD28 Fab signal: 1.7

B7: Phage-909 (peptide)
peptide: YCDGHAAEYMAKCV
notes: as for B1
[1]
  Anti-CD28 Fab signal (phage binding ELISA): 1.67
[2]
  Anti-CD28 Fab signal in the presence of CD28 (phage binding ELISA): 0.07

## YCDGHSTEYMEKCL (Tested as clonal phage supernatant) [Phage-903 (Peptide-87 library clone, YCDGHSTEYMEKCL)]
[3]
  Phage binding ELISA, Anti-CD28 Fab signal in the presence of CD28: 0.08
[4]
  Phage binding ELISA, Anti-CD28 Fab signal: 1.68

B8: Phage-890 (peptide)
peptide: YCEGHLPQYFMKCL
modifications: cysteine pairing not given here; also: fused to phage pIII
notes: as for B3
[7]
  Anti-CD28 Fab signal (phage binding ELISA): 1.7
[8]
  Anti-CD28 Fab signal in the presence of CD28: 0.07

## YCEGHSPWYMNKCL (Tested as clonal phage supernatant) [Phage-899 (Peptide-87 library clone, YCEGHSPWYMNKCL)]
[3]
  Phage binding ELISA, Anti-CD28 Fab signal in the presence of CD28: 0.06
[4]
  Phage binding ELISA, Anti-CD28 Fab signal: 1.68

## YCDGHSPAYIWKCL (Tested as clonal phage supernatant) [Phage-900 (Peptide-87 library clone, YCDGHSPAYIWKCL)]
[3]
  Phage binding ELISA, Anti-CD28 Fab signal in the presence of CD28: 0.08
[4]
  Phage binding ELISA, Anti-CD28 Fab signal: 1.68

B9: Phage-885 (peptide)
peptide: YCAGHSMEYMAKCL
modifications: cysteine pairing not given here; also: fused to phage pIII
notes: as for B3
[7]
  Anti-CD28 Fab signal (phage binding ELISA): 1.71
[8]
  Anti-CD28 Fab signal in the presence of CD28: 0.07

B10: Phage-889 (peptide)
peptide: YCEGHAQEYMSKCL
modifications: cysteine pairing not given here; also: fused to phage pIII
notes: as for B3
[7]
  Anti-CD28 Fab signal (phage binding ELISA): 1.7
[8]
  Anti-CD28 Fab signal in the presence of CD28: 0.08

B11: Phage-888 (peptide)
peptide: YCAGHTQEYMYKCL
modifications: cysteine pairing not given here; also: fused to phage pIII
notes: as for B3
[7]
  Anti-CD28 Fab signal (phage binding ELISA): 1.7
[8]
  Anti-CD28 Fab signal in the presence of CD28: 0.05

B12: Phage-916 (peptide)
peptide: YCEGHLSQYMSKCL
notes: as for B1
[1]
  Anti-CD28 Fab signal (phage binding ELISA): 1.66
[2]
  Anti-CD28 Fab signal in the presence of CD28 (phage binding ELISA): 0.07

B13: Phage-907 (peptide)
peptide: YCDGHAPQWMAKCL
notes: as for B1
[1]
  Anti-CD28 Fab signal (phage binding ELISA): 1.67
[2]
  Anti-CD28 Fab signal in the presence of CD28 (phage binding ELISA): 0.1

## YCDGHAWEYMTKCL (Tested as clonal phage supernatant) [Phage-898 (Peptide-87 library clone, YCDGHAWEYMTKCL)]
[3]
  Phage binding ELISA, Anti-CD28 Fab signal in the presence of CD28: 0.35
[4]
  Phage binding ELISA, Anti-CD28 Fab signal: 1.69

## YCAGHLQEYMQKCL (Tested as clonal phage supernatant) [Phage-895 (Peptide-87 library clone, YCAGHLQEYMQKCL)]
[3]
  Phage binding ELISA, Anti-CD28 Fab signal in the presence of CD28: 0.07
[4]
  Phage binding ELISA, Anti-CD28 Fab signal: 1.69

## YCDGHSEQYMSKCL (Tested as clonal phage supernatant) [Phage-901 (Peptide-87 library clone, YCDGHSEQYMSKCL)]
[3]
  Phage binding ELISA, Anti-CD28 Fab signal in the presence of CD28: 0.07
[4]
  Phage binding ELISA, Anti-CD28 Fab signal: 1.68

B14: Phage-920 (Peptide-87 library clone, SEQ ID NO: 1236) (peptide)
peptide: YCDGHDVEYMAKCL
modifications: cysteine pairing not given here; also: fused to phage pIII
notes: as for B2
[5]
  Anti-CD28 Fab signal (phage binding ELISA): 1.66
[6]
  Anti-CD28 Fab signal in the presence of CD28 (phage binding ELISA): 0.07

## YCDGHAIEYMAKCL (Tested as clonal phage supernatant) [Phage-896 (Peptide-87 library clone, YCDGHAIEYMAKCL)]
[3]
  Phage binding ELISA, Anti-CD28 Fab signal in the presence of CD28: 0.08
[4]
  Phage binding ELISA, Anti-CD28 Fab signal: 1.69

## YCDGHAKEYMDKCL (Tested as clonal phage supernatant) [Phage-902 (Peptide-87 library clone, YCDGHAKEYMDKCL)]
[3]
  Phage binding ELISA, Anti-CD28 Fab signal in the presence of CD28: 0.08
[4]
  Phage binding ELISA, Anti-CD28 Fab signal: 1.68

B15: Phage-912 (peptide)
peptide: YCDGHSADYMAKCL
notes: as for B1
[1]
  Anti-CD28 Fab signal (phage binding ELISA): 1.67
[2]
  Anti-CD28 Fab signal in the presence of CD28 (phage binding ELISA): 0.07

B16: Phage-887 (peptide)
peptide: YCDGHSLAYIAKCL
modifications: cysteine pairing not given here; also: fused to phage pIII
notes: as for B3
[7]
  Anti-CD28 Fab signal (phage binding ELISA): 1.7
[8]
  Anti-CD28 Fab signal in the presence of CD28: 0.06

## YCEGHKPEYMQKCL (Tested as clonal phage supernatant) [Phage-897 (Peptide-87 library clone, YCEGHKPEYMQKCL)]
[3]
  Phage binding ELISA, Anti-CD28 Fab signal in the presence of CD28: 0.06
[4]
  Phage binding ELISA, Anti-CD28 Fab signal: 1.69

B17: Phage-891 (peptide)
peptide: YCDGHSWEYMEKCL
modifications: cysteine pairing not given here; also: fused to phage pIII
notes: as for B3
[7]
  Anti-CD28 Fab signal (phage binding ELISA): 1.7
[8]
  Anti-CD28 Fab signal in the presence of CD28: 0.12

B18: Phage-914 (peptide)
peptide: YCEGHLPMYMIKCL
notes: as for B1
[1]
  Anti-CD28 Fab signal (phage binding ELISA): 1.66
[2]
  Anti-CD28 Fab signal in the presence of CD28 (phage binding ELISA): 0.09

B19: Phage-919 (Peptide-87 library clone, SEQ ID NO: 1235) (peptide)
peptide: YCDGHSREYMNKCL
modifications: cysteine pairing not given here; also: fused to phage pIII
notes: as for B2
[5]
  Anti-CD28 Fab signal (phage binding ELISA): 1.66
[6]
  Anti-CD28 Fab signal in the presence of CD28 (phage binding ELISA): 0.06

B20: Phage-905 (peptide)
peptide: YCDGHSWQYISKCL
notes: as for B1
[1]
  Anti-CD28 Fab signal (phage binding ELISA): 1.67
[2]
  Anti-CD28 Fab signal in the presence of CD28 (phage binding ELISA): 0.05

B21: Phage-906 (peptide)
peptide: YCEGHAPQYMNKCL
notes: as for B1
[1]
  Anti-CD28 Fab signal (phage binding ELISA): 1.67
[2]
  Anti-CD28 Fab signal in the presence of CD28 (phage binding ELISA): 0.08

B22: Phage-911 (peptide)
peptide: YCEGHAPQYMTKCL
notes: as for B1
[1]
  Anti-CD28 Fab signal (phage binding ELISA): 1.67
[2]
  Anti-CD28 Fab signal in the presence of CD28 (phage binding ELISA): 0.08

B23: Phage-913 (peptide)
peptide: YCDGHIGLYLNKCL
notes: as for B1
[1]
  Anti-CD28 Fab signal (phage binding ELISA): 1.66
[2]
  Anti-CD28 Fab signal in the presence of CD28 (phage binding ELISA): 0.06
